Test results from publication PMC3439491, “Characterization of an AGAMOUS-like MADS Box Protein, a Probable Constituent of Flowering and Fruit Ripening Regulatory System in Banana”.
Residue numbers refer to the chain shown, from its start.

Tests used:
[1] = molecular target: T1, MA-MADS5 full length (A) (Musa acuminata (AAA group, Cavendish …, UniProt E9NW24 1-243)); assay: EMSA; EMSA with 2 ug recombinant protein or 15 ug nuclear extract, buffer by reference to earlier work; circularization pre-incubation: 60 mM KCl, 8 mM HEPES pH 7.9; conditions: protein: recombinant, tags: 6xHis (pQE30), chain copies: 2, blunt
T1 sequence (E9NW24 entry or part of it): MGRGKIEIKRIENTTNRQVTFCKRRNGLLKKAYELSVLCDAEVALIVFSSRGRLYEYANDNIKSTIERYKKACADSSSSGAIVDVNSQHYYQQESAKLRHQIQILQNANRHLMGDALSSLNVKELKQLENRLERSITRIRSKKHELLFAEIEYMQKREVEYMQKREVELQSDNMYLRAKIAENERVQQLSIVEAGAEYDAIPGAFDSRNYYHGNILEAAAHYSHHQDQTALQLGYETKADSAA

[2] = molecular target: MA-MADS5 full length (A);MA-MADS5 D (MADS+I+K) (Musa acuminata (AAA group, Cavendish …, UniProt E9NW24;E9NW24 1-243;1-183, |)); assay: EMSA; intermediate-mobility dimer; EMSA with 2 ug recombinant protein or 15 ug nuclear extract, buffer by reference to earlier work; circularization pre-incubation: 60 mM KCl, 8 mM HEPES pH 7.9; conditions: protein: recombinant;recombinant; tags: 6xHis (pQE30);6xHis (pQE30); copies: 1;1; label: 32P; blunt
MA-MADS5 full length (A);MA-MADS5 D (MADS+I+K) (Musa acuminata, sequence (chain, as listed by the source |, chain 2 of 2): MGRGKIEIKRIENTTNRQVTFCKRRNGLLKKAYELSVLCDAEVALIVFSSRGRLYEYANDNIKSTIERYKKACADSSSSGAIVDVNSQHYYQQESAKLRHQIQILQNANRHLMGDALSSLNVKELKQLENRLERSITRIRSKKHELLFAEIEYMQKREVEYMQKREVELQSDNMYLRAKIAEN

[3] = molecular target: MA-MADS5 full length (A);MA-MADS5 C (MADS+I) (Musa acuminata (AAA group, Cavendish …, UniProt E9NW24;E9NW24 1-243;1-73, |)); assay: as above; conditions: protein: recombinant;recombinant; tags: 6xHis (pQE30);6xHis (pQE30); copies: 1;1; label: 32P; blunt
MA-MADS5 full length (A);MA-MADS5 C (MADS+I) (Musa acuminata, sequence (chain, as listed by the source |, chain 2 of 2): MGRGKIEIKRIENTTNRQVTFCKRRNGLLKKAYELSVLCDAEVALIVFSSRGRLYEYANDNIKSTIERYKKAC

[4] = molecular target: MA-MADS5 C (MADS+I);MA-MADS5 D (MADS+I+K) (Musa acuminata (AAA group, Cavendish …, UniProt E9NW24;E9NW24 1-73;1-183, |)); assay: as above; conditions: protein: recombinant;recombinant; tags: 6xHis (pQE30);6xHis (pQE30); copies: 1;1; label: 32P; blunt
[5] = molecular target: MA-MADS5 C (MADS+I) (Musa acuminata (AAA group, Cavendish …, UniProt E9NW24 1-73)); assay: EMSA; EMSA with 2 ug recombinant protein or 15 ug nuclear extract, buffer by reference to earlier work; circularization pre-incubation: 60 mM KCl, 8 mM HEPES pH 7.9; conditions: protein: recombinant; tags: 6xHis (pQE30); chain copies: 2; label: 32P; blunt
[6] = molecular target: MA-MADS5 F (K+C) (Musa acuminata (AAA group, Cavendish …, UniProt E9NW24 74-243)); assay: as above; conditions: protein: recombinant; tags: 6xHis (pQE30); label: 32P; blunt
MA-MADS5 F (K+C) (Musa acuminata, sequence (E9NW24 entry or part of it): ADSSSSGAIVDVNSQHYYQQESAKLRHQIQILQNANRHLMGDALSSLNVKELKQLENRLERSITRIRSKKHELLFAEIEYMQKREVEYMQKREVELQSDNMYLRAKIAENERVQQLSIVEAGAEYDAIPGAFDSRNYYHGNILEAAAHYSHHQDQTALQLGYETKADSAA

[7] = molecular target: MA-MADS5 D (MADS+I+K) (Musa acuminata (AAA group, Cavendish …, UniProt E9NW24 1-183)); assay: as above; conditions: protein: recombinant; tags: 6xHis (pQE30); chain copies: 2; label: 32P; blunt
[8] = molecular target: MA-MADS5 G (C-terminal) (Musa acuminata (AAA group, Cavendish …, UniProt E9NW24 184-243)); assay: as above; conditions: protein: recombinant; tags: 6xHis (pQE30); label: 32P; blunt
MA-MADS5 G (C-terminal) (Musa acuminata, sequence (E9NW24 entry or part of it): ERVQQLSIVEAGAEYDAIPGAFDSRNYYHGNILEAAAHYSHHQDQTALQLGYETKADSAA

[9] = molecular target: MA-MADS5 E (I+K+C) (Musa acuminata (AAA group, Cavendish …, UniProt E9NW24 61-243)); assay: as above; conditions: protein: recombinant; tags: 6xHis (pQE30); chain copies: 2; label: 32P; blunt
MA-MADS5 E (I+K+C) (Musa acuminata, sequence (E9NW24 entry or part of it): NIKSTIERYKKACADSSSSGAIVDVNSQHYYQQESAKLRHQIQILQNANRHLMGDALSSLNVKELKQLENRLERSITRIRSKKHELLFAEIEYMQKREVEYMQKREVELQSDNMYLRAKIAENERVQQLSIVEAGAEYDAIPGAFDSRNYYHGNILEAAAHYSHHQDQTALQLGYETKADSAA

[10] = molecular target: T1, MA-MADS5 full length (A); assay: EMSA; supershifted by anti-MA-MADS5; EMSA with 2 ug recombinant protein or 15 ug nuclear extract, buffer by reference to earlier work; circularization pre-incubation: 60 mM KCl, 8 mM HEPES pH 7.9; conditions: protein: recombinant; tags: 6xHis (pQE30); chain copies: 2; label: 32P 5' end; blunt

B1: CArG motif 3 (MA-ACS1) (dsDNA)
DNA 1: GGGTCAACTATAATTGCCTTCC
DNA 2: GGAAGGCAATTATAGTTGACCC
B1: no binding ([1]; label: 32P 5' end).

B2: CArG motif 8 (MA-LEC) (dsDNA)
DNA 1: CTGGTATCTATTTATGAAATCT
DNA 2: AGATTTCATAAATAGATACCAG
B2: binds ([1]; label: 32P 5' end).

B3: CArG motif 4 (MA-ACS1) (dsDNA)
DNA 1: GATCATGCTTTTATTGTTTCTT
DNA 2: AAGAAACAATAAAAGCATGATC
B3: no binding ([1]; label: 32P 5' end).

B4: CArG motif 9 (MA-LEC) (dsDNA)
DNA 1: ATAAATTCTTAAAAGATCCTAG
DNA 2: CTAGGATCTTTTAAGAATTTAT
B4: no binding ([1]; label: 32P 5' end).

B5: CArG motif 6 (MA-ACO1) (dsDNA)
DNA 1: GAACGCCTATAAATTGCCTGGT
DNA 2: ACCAGGCAATTTATAGGCGTTC
B5: no binding ([1]; label: 32P 5' end).

B6: CArG motif 5 (MA-ACO1) (dsDNA)
DNA 1: GAGGTTGGCAATTTGTCACTAC
DNA 2: GTAGTGACAAATTGCCAACCTC
B6: binds ([1]; label: 32P 5' end).

B7: CArG motif 7 (MA-EXP) (dsDNA)
DNA 1: AAGCACGCATATTTGTGCTGCA
DNA 2: TGCAGCACAAATATGCGTGCTT
B7: binds ([1]; label: 32P 5' end).

B8: CArG motif 2 (MA-ACS1) (dsDNA)
DNA 1: ACACCCCATAAATTTGATCTTC
DNA 2: GAAGATCAAATTTATGGGGTGT
B8: binds ([1]; label: 32P 5' end).

B9: AGAMOUS element 1 CArG-box (A probe) (dsDNA)
DNA 1: ACTGAAGCTTTCCATTAATGGGAATGACGCACAATCCCAC
DNA 2: GTGGGATTGTGCGTCATTCCCATTAATGGAAAGCTTCAGT
B9: binds [2]; binds [3]; binds [4]. B9: binds [5]; no binding [6]; binds ([1]; label: 32P). B9: binds [7]; no binding [8]; no binding [9].

B10: AGAMOUS element m1 (Am probe, CArGm) (dsDNA)
DNA 1: B9 DNA 1 with T16G, A17C
DNA 2: B9 DNA 2 with T24G, A25C
B10: no binding ([1]; label: 32P or unlabeled).

B11: CArG motif 1 (MA-SPS) (dsDNA)
DNA 1: TTGGATTCTTATATGTCACGAA
DNA 2: TTCGTGACATATAAGAATCCAA
B11: binds [10].
